Target: IL-12 receptor complex composed of IL-12 receptor β1 (IL-12Rβ1) and IL-12 receptor β2 (IL-12Rβ2) (human) (UniProt P42701)
Assay: cell-based or functional assay

Sequence of IL-12 receptor complex composed of IL-12 receptor β1 (IL-12Rβ1) and IL-12 receptor β2 (IL-12Rβ2) (human) (Q99665 24-862, chain 2 of 2, other chains not shown): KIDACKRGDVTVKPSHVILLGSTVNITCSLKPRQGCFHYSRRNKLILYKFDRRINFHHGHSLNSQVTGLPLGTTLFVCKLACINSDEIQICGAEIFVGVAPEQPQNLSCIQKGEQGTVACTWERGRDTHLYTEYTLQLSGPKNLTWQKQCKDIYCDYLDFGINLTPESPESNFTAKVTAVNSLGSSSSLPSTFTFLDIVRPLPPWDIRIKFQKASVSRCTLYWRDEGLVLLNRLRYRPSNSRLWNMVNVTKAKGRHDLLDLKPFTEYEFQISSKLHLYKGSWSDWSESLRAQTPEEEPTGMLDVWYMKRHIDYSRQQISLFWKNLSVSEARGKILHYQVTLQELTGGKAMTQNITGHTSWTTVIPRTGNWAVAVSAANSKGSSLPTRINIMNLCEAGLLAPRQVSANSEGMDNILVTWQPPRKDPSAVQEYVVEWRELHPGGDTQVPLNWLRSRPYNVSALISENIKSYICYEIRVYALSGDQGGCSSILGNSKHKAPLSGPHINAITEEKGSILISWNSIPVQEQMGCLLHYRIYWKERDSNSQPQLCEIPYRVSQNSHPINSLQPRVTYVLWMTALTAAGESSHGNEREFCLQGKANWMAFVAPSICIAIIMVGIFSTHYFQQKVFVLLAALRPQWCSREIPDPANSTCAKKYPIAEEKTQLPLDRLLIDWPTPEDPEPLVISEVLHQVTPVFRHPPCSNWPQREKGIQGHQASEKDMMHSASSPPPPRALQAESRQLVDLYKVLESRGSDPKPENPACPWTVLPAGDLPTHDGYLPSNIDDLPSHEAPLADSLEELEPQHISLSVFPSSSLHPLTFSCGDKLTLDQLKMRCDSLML

| Substance | fold reduction in potency (EC50 of STAT4 phosphorylation) relative to WT IL-12-Fc XENP27201 |
| --- | --- |
| IL-12-Fc fusion comprising IL-12p35(D55Q/N151D) | 2 fold |
| IL-12-Fc fusion comprising IL-12p35(E153Q) | > 2 fold |
| IL-12-Fc fusion comprising IL-12p40(E235Q) | > 2 fold |
